Measured values as given in publication PMC3960984 (Nature structural & molecular biology, 2012).
No end group written: not given here.

What follows are binders tested against human LRH-1 LBD (residues 299-541), loaded with DLPC (human, UniProt O00482 299-541) (assay: fluorescence polarisation).
Sequence of human LRH-1 LBD (residues 299-541), loaded with DLPC (O00482 299-541): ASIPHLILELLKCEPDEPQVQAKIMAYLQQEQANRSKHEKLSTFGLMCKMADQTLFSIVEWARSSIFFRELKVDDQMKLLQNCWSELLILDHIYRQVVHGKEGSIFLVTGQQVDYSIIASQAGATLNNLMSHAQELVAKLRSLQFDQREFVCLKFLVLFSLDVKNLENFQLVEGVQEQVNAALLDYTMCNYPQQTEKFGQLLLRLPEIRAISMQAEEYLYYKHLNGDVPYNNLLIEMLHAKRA

binding result | Binder
binds | SPSSHSSLTERHKILHRLLQEGSP (also: fluorescein label, position not given here) [fluorescein labeled peptide derived from SRC-1 NR Box 2]
binds | PVSPKKKENALLRYLLDKDDT (also: fluorescein label, position not given here) [fluorescein labeled peptide derived from TIF2 NR Box 3]
binds | EEPSLLKKLLLAPA (also: fluorescein label, position not given here) [fluorescein labeled peptide derived from human PGC-1α NR Box 2]
